In patent US20260274955A1 (JANUX THERAPEUTICS, published 2026):

Columns and labels:
[1] = target: T1, anti-CD28 Fab (SEQ ID NOs: 202, 203); experiment: phage ELISA on captured Fab;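 also: ELISA with clonal phage supernatants added to wells preincubated with CD28 antigen or with blocking buffer only, bound phage detected by HRP-conjugated anti-M13 antibody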
T1 construct: biotinylated and captured on neutravidin coated plates in the phage ELISA
Description: (§1) Clonal phage were harvested as crude supernatants and screened via standard ELISAs. […] Prior to the addition of clonal phage, wells were incubated with blocking buffer and CD28 antigen or blocking buffer alone. Without washing or aspirating, clonal phage supernatants were then added to the wells and incubated for a short time. Wells were then washed followed by detection of bound phage using a horse radish conjugated anti-M13 antibody.

[2] = target: T2, Anti-CD28 Fab (SEQ ID NOs: 202, 203); experiment: phage ELISA, Fab on plate;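 also: crude clonal phage supernatants added to wells pretreated with blocking buffer with or without CD28 antigen, then bound phage read out via HRP-linked anti-M13 antibody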
T2 construct: biotinylated and captured on neutravidin coated plates in the phage ELISA
T2 sequence (VH, as listed by the source, chain 1 of 2): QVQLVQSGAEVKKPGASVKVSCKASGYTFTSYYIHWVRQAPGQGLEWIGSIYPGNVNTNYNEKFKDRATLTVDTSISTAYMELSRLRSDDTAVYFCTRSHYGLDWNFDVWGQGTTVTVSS
T2 sequence (VL, as listed by the source, chain 2 of 2): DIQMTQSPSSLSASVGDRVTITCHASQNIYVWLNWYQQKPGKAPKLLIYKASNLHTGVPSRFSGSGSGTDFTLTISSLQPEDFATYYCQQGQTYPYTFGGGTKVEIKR
Description: (§2) After panning, phage infected bacteria were plated out and colonies picked into 96 well blocks. Clonal phage was then amplified and separated from bacterial cells via centrifugation.
(§3) Clonal phage were harvested as crude supernatants and screened via standard ELISAs. […] Prior to the addition of clonal phage, wells were incubated with blocking buffer and CD28 antigen or blocking buffer alone. Without washing or aspirating, clonal phage supernatants were then added to the wells and incubated for a short time. Wells were then washed followed by detection of bound phage using a horse radish conjugated anti-M13 antibody. Clonal phage of interest were then sent for sequence analysis.

[3] = target: T2, Anti-CD28 Fab (SEQ ID NOs: 202, 203); experiment: phage ELISA, Fab on plate, CD28 antigen as competitor
Description: as §2, §3

[4] = target: Anti-CD28 Fab (SEQ ID NOs: 202, 203); experiment: phage binding ELISA on captured Fab;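 also: clonal phage supernatants added briefly to wells pre-incubated with CD28 antigen or with blocking buffer only, then washed, bound phage read by ELISA using HRP-coupled anti-M13 antibody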
Target sequence in this assay (VH, as listed by the source, chain 1 of 2): as the sequence (VH, as listed by the source, chain 1 of 2) above
Target sequence in this assay (VL, as listed by the source, chain 2 of 2): as the sequence (VL, as listed by the source, chain 2 of 2) above
Description: as §1

T1 sequence (VH, as listed by the source, chain 1 of 2): as the sequence (VH, as listed by the source, chain 1 of 2) above
T1 sequence (VL, as listed by the source, chain 2 of 2): as the sequence (VL, as listed by the source, chain 2 of 2) above

Row | Binder | Anti-CD28 Fab (SEQ ID NOs: 202, 203) signal [1] | Anti-CD28 Fab (SEQ ID NOs: 202, 203) signal [4] | other results
1 | YCDGHLAIYIGKCL (on phage, pIII fusion) [Phage-580] | 1.47 | – | –
2 | YCDGHLEIYMSKCL (on phage, pIII fusion) [Phage-581] | 1.46 | – | –
3 | YCDGHLPEYIAKCQ [Phage-600] | – | – | Anti-CD28 Fab (SEQ ID NOs: 202, 203) signal [2]: 1.43; Anti-CD28 Fab signal in the presence of CD28 [3]: 0.07
4 | YCDGHTSEYMTKCL (on phage, pIII fusion) [Phage-546] | 1.54 | – | –
5 | YCEGHSQQYMQKCL [Phage-605] | – | – | Anti-CD28 Fab (SEQ ID NOs: 202, 203) signal [2]: 1.42; Anti-CD28 Fab signal in the presence of CD28 [3]: 0.08
6 | YCEGHSQQYMWKCL [Phage-711] | – | – | Anti-CD28 Fab (SEQ ID NOs: 202, 203) signal [2]: 1.17; Anti-CD28 Fab signal in the presence of CD28 [3]: 0.05
7 | YCEGHSQTYMWKCL [Phage-709] | – | – | Anti-CD28 Fab (SEQ ID NOs: 202, 203) signal [2]: 1.17; Anti-CD28 Fab signal in the presence of CD28 [3]: 0.08
8 | YCEGHVLEYRGKCD (on phage, pIII fusion) [Phage-576] | 1.48 | – | –
9 | YCEGHLAAYMYKCL [Phage-805] | – | 0.89 | –
10 | YCDGHSQAHMQKCL (on phage, pIII fusion) [Phage-542] | 1.55 | – | –
11 | YCDGHSLEYMVKCL (on phage, pIII fusion) [Phage-583] | 1.46 | – | –
12 | YCDGHFTWYMAKCL [Phage-809] | – | 0.87 | –
13 | YCEGHSSAYMAKCL [Phage-804] | – | 0.9 | –
14 | YCLGHSWPYIHKCY [Phage-602] | – | – | Anti-CD28 Fab (SEQ ID NOs: 202, 203) signal [2]: 1.43; Anti-CD28 Fab signal in the presence of CD28 [3]: 0.07
15 | YCDGHKPEYMDKCL [Phage-770] | – | 0.99 | –
16 | YCEGHTPVYMPKCL (on phage, pIII fusion) [Phage-585] | 1.46 | – | –
17 | YCAGHTQEYIEKCL (on phage, pIII fusion) [Phage-579] | 1.47 | – | –
18 | YCDGHIAEYRSKCL [Phage-810] | – | 0.87 | –
19 | YCDGHFLTYMTKCL (on phage, pIII fusion) [Phage-538] | 1.56 | – | –
20 | YCAGHDQQYMEKCL (on phage, pIII fusion) [Phage-543] | 1.55 | – | –
21 | YCDGHLDEYMLKCL [Phage-603] | – | – | Anti-CD28 Fab (SEQ ID NOs: 202, 203) signal [2]: 1.43; Anti-CD28 Fab signal in the presence of CD28 [3]: 0.06

Row | Binder | Anti-CD28 Fab (SEQ ID NOs: 202, 203) signal [1] | Anti-CD28 Fab (SEQ ID NOs: 202, 203) signal [4] | other results
22 | YCDGHSQEYMAHCL (on phage, pIII fusion) [Phage-536] | 1.56 | – | –
23 | YCEGHLSEYIGKCL [Phage-811] | – | 0.87 | –
24 | YCDGHVGAYMWKCL [Phage-771] | – | 0.99 | –
25 | YCDGHSLEYIEKCL [Phage-601] | – | – | Anti-CD28 Fab (SEQ ID NOs: 202, 203) signal [2]: 1.43; Anti-CD28 Fab signal in the presence of CD28 [3]: 0.06
26 | YCEGHLDQYMTKCL (on phage, pIII fusion) [Phage-578] | 1.47 | – | –
27 | YCEGHISEYMGKCL [Phage-808] | – | 0.88 | –
28 | YCEGHLREYMLKCL [Phage-764] | – | 1.01 | –
29 | YCEGHRPEYMANCL [Phage-768] | – | 1 | –
30 | YCEGHSSVYLWKCL [Phage-765] | – | 1 | –
31 | YCEGHSQEYKAKCF [Phage-802] | – | 0.9 | –
32 | YCDGHLAEYIQKCL [Phage-759] | – | 1.04 | –
33 | YCEGHRPEYMQKCV (on phage, pIII fusion) [Phage-574] | 1.48 | – | –
34 | YCEGHIEPYMQKCL [Phage-769] | – | 0.99 | –
35 | YCDGHLPVYMMKCL (on phage, pIII fusion) [Phage-544] | 1.55 | – | –
36 | YCDGHLEVYMSKCL [Phage-767] | – | 1 | –
37 | YCAGHSQVYMWKCL [Phage-761] | – | 1.02 | –
38 | YCEGHLDMYVWKCL (on phage, pIII fusion) [Phage-535] | 1.56 | – | –
39 | YCAGHSEEYMDKCL (on phage, pIII fusion) [Phage-539] | 1.55 | – | –
40 | YCEGHIEQYMRKCL [Phage-762] | – | 1.01 | –
41 | YCDGHTAQYMWKCL [Phage-812] | – | 0.87 | –
42 | YCDGHNWEYMEKCL [Phage-622] | – | – | Anti-CD28 Fab signal in the presence of CD28 [3]: 0.05

Row | Binder | Anti-CD28 Fab (SEQ ID NOs: 202, 203) signal [1] | Anti-CD28 Fab (SEQ ID NOs: 202, 203) signal [4] | other results
43 | YCDGHVAEYRHKCL (on phage, pIII fusion) [Phage-577] | 1.47 | – | –
44 | YCQGHLPQYVEKCL (on phage, pIII fusion) [Phage-534] | 1.57 | – | –
45 | YCEGHSWIYIAKCL [Phage-766] | – | 1 | –
46 | YCDGHSTLYMQKCL [Phage-806] | – | 0.88 | –
47 | YCDGHSPLYMVKCL (on phage, pIII fusion) [Phage-537] | 1.56 | – | –
48 | YCFGHAPEYLLKCL [Phage-763] | – | 1.01 | –
49 | YCDGHVLMYLAKCL [Phage-803] | – | 0.9 | –
50 | YCDGHLPMYMKKCL (on phage, pIII fusion) [Phage-533] | 1.57 | – | –
51 | YCDGHLLMYMEKCL [Phage-800] | – | 0.91 | –
52 | YCDGHLPEYITKCL (on phage, pIII fusion) [Phage-573] | 1.49 | – | –
53 | YCAGHSSEYLQKCL [Phage-760] | – | 1.03 | –
54 | YCDGHTEAYMSKCL [Phage-807] | – | 0.88 | –
55 | YCDGHTPEYMWKCL [Phage-604] | – | – | Anti-CD28 Fab (SEQ ID NOs: 202, 203) signal [2]: 1.43; Anti-CD28 Fab signal in the presence of CD28 [3]: 0.06
56 | YCDGHTKEYMWKCL [Phage-736] | – | – | Anti-CD28 Fab (SEQ ID NOs: 202, 203) signal [2]: 1.1; Anti-CD28 Fab signal in the presence of CD28 [3]: 0.06
57 | YCAGHTVENMAKCL (on phage, pIII fusion) [Phage-575] | 1.48 | – | –
58 | YCEGHSLEHIAKCL (on phage, pIII fusion) [Phage-584] | 1.46 | – | –
59 | YCAGHNAQYMSKCL (on phage, pIII fusion) [Phage-545] | 1.55 | – | –
60 | YCVGHLPQYMQKCL [Phage-599] | – | – | Anti-CD28 Fab (SEQ ID NOs: 202, 203) signal [2]: 1.43; Anti-CD28 Fab signal in the presence of CD28 [3]: 0.06
61 | YCEGHTLEYMWKCL (on phage, pIII fusion) [Phage-541] | 1.55 | – | –
62 | YCEGHDWMYMEKCL [Phage-801] | – | 0.91 | –
